Test results published in patent US20090176264A1 (ORTHO CLINICAL DIAGNOSTICS, published 2009).
Changes are numbered by the printed parent chain.

B1: Full length sFlt (soluble fms-like tyrosine kinase 1, sFlt-1), Scios Inc. Lot# 9225-89 (receptor)
chain: SKLKDPELSLKGTQHIMQAGQTLHLQCRGEAAHKWSLPEMVSKESERLSITKSACGRNGKQFCSTLTLNTAQANHTGFYSCKYLAVPTSKKKETESAIYIFISDTGRPFVEMYSEIPEIIHMTEGRELVIPCRVTSPNITVTLKKFPLDTLIPDGKRIIWDSRKGFIISNATYKEIGLLTCEATVNGHLYKTNYLTHRQTNTIIDVQISTPRPVKLLRGHTLVLNCTATTPLNTRVQMTWSYPDEKNKRASVRRRIDQSNSHANIFYSVLTIDKMQNKDKGLYTCRVRSGPSFKSVNTSVHIYDKAFITVKHRKQQVLETVAGKRSYRLSMKVKAFPSPEVVWLKDGLPATEKSARYLTRGYSLIIKDVTEEDAGNYTILLSIKQSNVFKNLTATLIVNVKPQIYEKAVSSFPDPALYPLGSRQILTCTAYGIPQPTIKWFWHPCNHNHSEARCDFCSNNEESFILDADSNMGNRIESITQRMAIIEGKNKMASTLVVADSRISGIYICIASNKVGTVGRNISFYITDVPNGFHVNLEKMPTEGEDLKLSCTVNKFLYRDVTWILLRTVNNRTMHYSISKQKMAITKEHSITLNLTIMNVSLQDSGTYACRARNVYTGEEILQKKEITIRGEHCNKKAVFSRISKFKSTRNDCTTQSNVKH
notes: also called recombinant sFlt
B2: P126(GAA): PlGF mutant #2 (ligand)
chain: MRGSAVPPQQWALSAGNGSSEVEVVPFQEVWGRSYCRALERLVDVVSEYPSEVEHMFSPSCVSLLRCTGCGGAANLHCVPVETANVTMQLLKIRSGDRPSYVELTFSQHVRCECRPLREKMKPERCGDAVGPGQIVGGVYLL

Columns and labels:
P126(AA): PlGF mutant #1 [1] = target: T1, P126(AA): PlGF mutant #1 (human); assay: ELISA, coated PlGF, sFlt at 200 ng/mL, detected with RD-1 + RD-2 anti-sFlt
T1 chain: B2 chain with G71C

[2] = target: T2, P126(DE): recombinant PlGF wild type (human); assay: as above
T2 construct: also called unaltered PlGF
T2 chain: B2 chain with G71C, A73D, A74E

[3] = target: B2; assay: as above
P126(AA): PlGF mutant #1 [4] = target: T1, P126(AA): PlGF mutant #1; assay: ELISA, coated PlGF, sFlt at 1800 ng/mL, detected with RD-1 + RD-2 anti-sFlt
[5] = target: T2, P126(DE): recombinant PlGF wild type; assay: as above
[6] = target: B2; assay: as above
P126(AA): PlGF mutant #1 [7] = target: T1, P126(AA): PlGF mutant #1; assay: ELISA, coated PlGF, sFlt at 600 ng/mL, detected with RD-1 + RD-2 anti-sFlt
[8] = target: T2, P126(DE): recombinant PlGF wild type; assay: as above
[9] = target: B2; assay: as above
P126(AA): PlGF mutant #1 [10] = target: T1, P126(AA): PlGF mutant #1; assay: ELISA, coated PlGF, sFlt at 66.67 ng/mL, detected with RD-1 + RD-2 anti-sFlt
[11] = target: T2, P126(DE): recombinant PlGF wild type; assay: as above
[12] = target: B2; assay: as above
[13] = target: B1; assay: ELISA, sFlt coated 0.5 ug/mL, PlGF in solution, detected with Rat-4
Description: High-binding microtiter plate was coated with recombinant sFlt at 0.5 ug/mL and blocked with BSA/PBS
Standard ELISA procedure consists of 1st plate incubation with diluted P126(DE) or P126(AA) or P126(GAA) in casein/PBS at various concentration, 2nd plate incubation with monoclonal anti-PlGF Rat-4 solution at 0.1 ug/mL, 3rd plate incubation with HRP conjugated donkey anti-Rat IgG at 1:4K dilution in casein/PBS and 4th plate incubation with 100 uL OPD substrate development for 25 C/30 min. 1st, 2nd and 3rd plate incubation step is at 37 C/15-20 min/shake; 6 times plate washing between each step. 25 uL stop solution after 4th incubation and record OD at 492 nm.

Binder | OD at 492 nm (P126(AA): PlGF mutant #1 [1]) [OD] | OD at 492 nm [2] [OD] | OD at 492 nm [3] [OD] | OD at 492 nm (P126(AA): PlGF mutant #1 [4]) [OD] | OD at 492 nm [5] [OD] | OD at 492 nm [6] [OD] | OD at 492 nm (P126(AA): PlGF mutant #1 [7]) [OD] | OD at 492 nm [8] [OD] | OD at 492 nm [9] [OD] | OD at 492 nm (P126(AA): PlGF mutant #1 [10]) [OD] | OD at 492 nm [11] [OD] | OD at 492 nm [12] [OD] | binding result [13]
B1 | 0.115 | 0.833 | 0.095 | 0.21 | > 3 | 0.15 | 0.182 | 1.83 | 0.101 | 0.143 | 0.347 | 0.088 | 
B2 |  |  |  |  |  |  |  |  |  |  |  |  | no binding (tested: 1000 ng/mL)
